According to patent US20110126301A1 (WALTER AND ELIZA HALL INSTITUTE OF MEDICAL RESEARCH, published 2011):

Assays:
[1] = biological target: T1, human 5B6 (CLEC9A), membrane bound (human, UniProt Q6UXN8 1-241); assay: flow cytometry on transiently transfected 293T cells; anti-FLAG 9H10-biotin and streptavidin-PE
T1 construct: Full length on transfectant cells or native on human blood BDCA-3+ DC; also called h5B6; HEEE9341
From the text: To identify binding partners for the 5B6 molecule, the inventors generated soluble FLAG-tagged m5B6 and h5B6 which encompassed the ectodomain of 5B6 including the stalk region and the C-type lectin-like domain (CTLD), denoted in FIG. 11A as “Original (with stalk)”. A soluble FLAG-tagged ectodomain version of the C-type lectin Cire was also generated as a control molecule. […] Thus, soluble 5B6 can interact with membrane bound 5B6 in a cross-species manner.

[2] = biological target: T1, human 5B6 (CLEC9A), membrane bound; assay: flow cytometry on cells expressing 5B6

T1 sequence (Q6UXN8 whole entry): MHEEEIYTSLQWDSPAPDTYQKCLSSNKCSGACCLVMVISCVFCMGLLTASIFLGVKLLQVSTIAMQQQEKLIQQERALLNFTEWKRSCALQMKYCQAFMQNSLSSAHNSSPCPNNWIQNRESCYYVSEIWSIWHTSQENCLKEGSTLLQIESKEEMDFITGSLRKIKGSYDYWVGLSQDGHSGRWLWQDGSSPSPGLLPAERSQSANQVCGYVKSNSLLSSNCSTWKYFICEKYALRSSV

binding result [1] | binding result [2] | Binder
binds | – | soluble FLAG-tagged human 5B6 including stalk (receptor, also called soluble h5B6; soluble human 5B6) not shown
– | binds | rat mAb 24/04-10B4 (anti-5B6 / anti-Clec9A antibody) (antibody, V domains shown, Rat IgG2a, kappa, from hybridoma 24/04-10B4 (peptide immunisation); Used biotinylated or APC-conjugated in flow cytometry; also called anti-m5B6 mAb; anti-5B6 mAb) VH: AVQIVESGGGLVQPKESLKISCTASGFTFSNAAIYWVRQTPGKGLEWVGRIRTRPSKYATDYADSVRGRFTISRDDSKSMVYLQMDNLRTEDTAMYYCTPRATEDVPFYWGQGVMVTVSS VL: DIVMTQTPSSQAVSAGEKVTMNCKSSQSVLYDENKKNYLAWYQQKSGQSPKLLIYWASTGESGVPDRFIGSGSGTDFTLTISSVQAEDLAVYYCQQYYDFPPTFGGGTKLELKR
binds | – | soluble FLAG-tagged mouse 5B6 including stalk (receptor, also called soluble m5B6; soluble mouse 5B6) ASISARQNSGLHHILDAQKMVWNHRGARQDYKDDDDKTREQQERLIQQDTALVNLTQWQRKYTLEYCQALLQRSLHSGTDASTGPVLLTSPQMVPQTLDSKETGSDCSPCPHNWIQNGKSCYYVFERWEMWNISKKSCLKEGASLFQIDSKEEMEFISSIGKLKGGNKYWVGVFQDGISGSWFWEDGSSPLSDLLPAERQRSAGQICGYLKDSTLISDKCDSWKYFICEKKAFGSCI
